The target in this assay is Shiga toxin 2a B-subunit (StxB2a) (E. coli (endogenous in STEC/EHEC strains TS18/08, LB226692, HUSEC003, HUSEC004, HUSEC008, HUSEC018)). Description: native gel or EMSA. On the technique in general: In EMSA bound probe runs differently from free probe, usually more slowly.

Values joined by “and” are separate entries in the source; they are usually repeats but may differ in a detail not shown here. Equal entries are not always repeated.

We go through one substance from paper PMC12078605.

Usually stoichiometry N stands for a count of units in the complex or per binding partner.

In the case of “Shiga toxin 2a B-subunit (StxB2a) (natural protein)”, the stoichiometry N was 2 and 3 and 5.
